According to patent US20070286935A1, “Bioactive Compositions, Natural Methods of Producing Them and Computational Methods for Designing Natural Production Processes” (NESTEC S.A., priority 2004, published 2007):
Blank lines part the entries; values can stand above or below the molecule they belong to.

Key:
[1] = target: T1, Y2-GPCR (Homo sapiens, UniProt P49146); assay: competitive binding assay against PYY22-36 on Y2-GPCR
T1 sequence (P49146 1-381): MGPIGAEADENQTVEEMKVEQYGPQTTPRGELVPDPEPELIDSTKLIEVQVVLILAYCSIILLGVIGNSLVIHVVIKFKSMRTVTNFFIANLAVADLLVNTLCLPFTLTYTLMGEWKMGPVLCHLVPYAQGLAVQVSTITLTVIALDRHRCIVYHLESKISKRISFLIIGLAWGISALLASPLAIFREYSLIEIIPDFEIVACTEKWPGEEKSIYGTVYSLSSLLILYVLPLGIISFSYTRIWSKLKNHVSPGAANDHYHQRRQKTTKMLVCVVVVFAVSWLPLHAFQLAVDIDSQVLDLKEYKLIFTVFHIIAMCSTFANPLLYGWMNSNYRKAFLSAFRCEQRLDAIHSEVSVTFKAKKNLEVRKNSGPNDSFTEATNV
Description: The peptides derived from the proteins AtRGP2, OsRGP1 and OsBiP were synthesized in 5 mg quantities at and purified to a purity of above about 90%. The peptides were tested in a competitive binding assay against PYY^22-36 for binding to the GPCR receptor.
In-vitro receptor-based screening of receptor subtypes Y1, Y2, and Y3 was performed according to protocols known in the art. (Munoz et al., Mol. Cell. Endocrinol. 107, 77 (1995), Fuhlendorf et al., PNAS 87, 182 (1990)) Screening of OsBiP, ZmRGP1 and AtRGP1 was conducted on Y2-GPCR as described above using known methods and activity was measured as the percentage of inhibition of binding of the endogenous ligand PYY^22-36 sequence. The PYY^22-36 sequence was used as a positive control. Of the peptides tested, the one derived from AtRGP1 protein was able to inhibit binding of PYY^22-36 by 20-40% when 10 μM concentration of both the PYY^22-36 and OsBiP peptide were used in the binding assay. […] In vivo tissue-based screening on cultures of rat colon cells can be carried out according to known protocols, such as described in Dumont et al., Eur. J. Pharmacol. 238, 37 (1993).

[2] = target: T2, Y2 GPCR receptor; assay: competitive receptor binding assay on Y2-GPCR against PYY22-36, 10 µM of both peptides
T2 sequence (P49146 whole entry, species assumed, looked up): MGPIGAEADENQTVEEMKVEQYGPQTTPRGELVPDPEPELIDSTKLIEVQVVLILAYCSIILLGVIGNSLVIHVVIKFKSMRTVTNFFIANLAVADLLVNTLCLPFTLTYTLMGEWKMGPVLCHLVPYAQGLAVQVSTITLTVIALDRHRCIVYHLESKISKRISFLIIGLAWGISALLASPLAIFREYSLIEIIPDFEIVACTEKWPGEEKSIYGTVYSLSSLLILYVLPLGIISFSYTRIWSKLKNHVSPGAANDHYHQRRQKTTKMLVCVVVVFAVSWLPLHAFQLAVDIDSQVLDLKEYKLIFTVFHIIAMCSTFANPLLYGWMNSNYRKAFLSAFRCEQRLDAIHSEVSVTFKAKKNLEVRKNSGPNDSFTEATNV

[3] = target: T3, CCK-B GPCR receptor (human) (UniProt P32239); assay: competitive receptor binding assay against CCK-8 on CCK-B receptor, synthetic peptide at 10 µM
T3 sequence (looked up): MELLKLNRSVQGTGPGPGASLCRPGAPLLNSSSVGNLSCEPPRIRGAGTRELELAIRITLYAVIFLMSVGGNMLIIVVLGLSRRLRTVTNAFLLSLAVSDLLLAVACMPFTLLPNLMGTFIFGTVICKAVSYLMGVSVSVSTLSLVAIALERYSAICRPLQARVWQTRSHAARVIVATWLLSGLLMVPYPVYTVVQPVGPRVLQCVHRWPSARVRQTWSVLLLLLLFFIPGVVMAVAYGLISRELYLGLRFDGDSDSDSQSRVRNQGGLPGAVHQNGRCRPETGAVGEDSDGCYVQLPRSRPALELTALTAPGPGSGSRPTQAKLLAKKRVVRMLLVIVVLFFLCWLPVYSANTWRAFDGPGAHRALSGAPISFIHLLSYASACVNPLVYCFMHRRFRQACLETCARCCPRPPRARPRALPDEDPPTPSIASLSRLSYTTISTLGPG

binding to the Y2 receptor ([1]; same technique, result in words): shown to bind the Y2 receptor
Molecule: FDGVDFSEPLTRARF [OsBIP]

percentage of inhibition of binding of the endogenous ligand PYY22-36 ([1]; 10 μM concentration of both PYY22-36 and test peptide, Y2-GPCR): 20-40%
Molecule: YSCRYFGYLVSKKKY (listed as Arabidopsis thaliana) [AtRGP1, peptide derived from Arabidopsis thaliana amylogenin protein RGP]

percent inhibition of binding of PYY22-36 [2]: 20 to 40%
Molecule: YSCRYFGYLVSKKKY [AtRGP2 peptide fragment (peptide derived from Arabidopsis thaliana amylogenin protein RGP)]

percent inhibition of binding of CCK-8 [3]: 5%
Molecule: PWMDFKELQEFK [Oryza sativa oryzacystatin hydrolyzed with trypsin - synthetic peptide 3 (…)]
